In patent US8637043B2, “Compositions useful as ligands for the formyl peptide receptor like 1 receptor and methods of use thereof” (Chemocentryx, Inc., priority 2001, dated 2014):

Test system: pariental L1.2 cells
Test: Migration of parental L1.2 cells
Assay type: cell-based, murine
Experimental: Migration assays were performed on monocytes and neutrophils. Human monocytes and neutrophils (prepared as in Exampe 2) were harvested and resuspended in chemotaxis medium (CM). The CM consisted of Hank's buffered salt solution (Gibco, Mass.) containing CaCl2 (1 mM) and MgSO4 (1 mM) with added 0.1% BSA (Sigma, St. Louis, Mo.). The assays were performed in 96-well ChemoTx® microplates (Neuroprobe, Mass.). Leukotactin, MlP-1α and chemokines (CKβ8(1-99), CKβ8(25-99), CKβ8-1(1-116) or CKβ8-1(25-116), prepared as in Example 1) were added to the lower wells (final volume 29 μL), and 20 μL of cell suspension (5×10^6 cells/mL for monocytes; 2.5×10^6 cells/mL for neutrophils) added to the polycarbonate filters (5 μm pore size for monocytes; 3 μm pore size for neutrophils). After incubation for 90 min (37° C., 100% humidity, 5% CO2), cells were removed from the upper surface of the filter by scraping. Cells that migrated into the lower chamber were quantified using the Quant cell proliferation assay kit (Molecular Probes, Oreg.).
The ability of CKβ8-1 (25-116) to elicit the migration of the FPRL1 expressing cells was examined. Test conditions were as in Example 5.

B1: CKβ8-1(25-116): novel NH2-terminal truncated form of CKβ8-1, SEQ ID NO: 16, human recombinant chemokine (protein, listed as Homo sapiens)
chain: MLWRRKIGPQMTLSHAAGFHATSADCCISYTPRSIPCSLLESYFETNSECSKPGVIFLTKKGRRFCANPSDKQVQVCMRMLKLDTRIKTRKN
- migration of parental L1.2 cells: did not migrate
